Measurements taken from patent publication US20220315909.

B1: Recombinant Human Matriptase/ST14 Catalytic Domain (protein)
chain: not shown
cleavage ratio (PAR) on peptide array, human MT-SP1 500 nM (SEQ ID NO 17997): showed higher cleavage ratios than the sequence shown as SEQ ID NO: 3 for both the cleavages by human uPA and human MT-SP1
cleavage ratio (PAR) on peptide array, human MT-SP1 500 nM (SEQ ID NO 18000): showed higher cleavage ratios than the sequence shown as SEQ ID NO: 3 for both the cleavages by human uPA and human MT-SP1
cleavage ratio (PAR) on peptide array, human MT-SP1 500 nM (SEQ ID NO 17994): showed higher cleavage ratios than the sequence shown as SEQ ID NO: 3 for both the cleavages by human uPA and human MT-SP1
cleavage ratio (PAR) on peptide array, human MT-SP1 500 nM (SEQ ID NO 17995): showed higher cleavage ratios than the sequence shown as SEQ ID NO: 3 for both the cleavages by human uPA and human MT-SP1
cleavage ratio (PAR) on peptide array, human MT-SP1 500 nM (SEQ ID NO 17999): showed higher cleavage ratios than the sequence shown as SEQ ID NO: 3 for both the cleavages by human uPA and human MT-SP1
cleavage ratio (PAR) on peptide array, human MT-SP1 500 nM (SEQ ID NO 18003): showed higher cleavage ratios than the sequence shown as SEQ ID NO: 3 for both the cleavages by human uPA and human MT-SP1
cleavage ratio (PAR) on peptide array, human MT-SP1 500 nM (SEQ ID NO 17996): showed higher cleavage ratios than the sequence shown as SEQ ID NO: 3 for both the cleavages by human uPA and human MT-SP1
cleavage ratio (PAR) on peptide array, human MT-SP1 500 nM (SEQ ID NO 18002): showed higher cleavage ratios than the sequence shown as SEQ ID NO: 3 for both the cleavages by human uPA and human MT-SP1
cleavage ratio (PAR) on peptide array, human MT-SP1 500 nM (SEQ ID NOs: 17202-17993): showed higher cleavage ratios than the sequence shown as SEQ ID NO: 3 for both the cleavages by human uPA and human MT-SP1
cleavage ratio (PAR) on peptide array, human MT-SP1 500 nM (SEQ ID NO 18001): showed higher cleavage ratios than the sequence shown as SEQ ID NO: 3 for both the cleavages by human uPA and human MT-SP1
cleavage ratio (PAR) on peptide array, human MT-SP1 500 nM (SEQ ID NO 17998): showed higher cleavage ratios than the sequence shown as SEQ ID NO: 3 for both the cleavages by human uPA and human MT-SP1
cleavage ratio (PAR) on peptide array, human MT-SP1 500 nM (SEQ ID NOs: 5-17201): showed higher cleavage ratios than the sequence shown as SEQ ID NO: 2 for both the cleavages by human uPA and human MT-SP1
